Values quoted from earlier work, collected in PMC11987431.

Molecular target: IL-6 receptor (Rattus norvegicus) (UniProt P22273)
UniProt P22273, sequence (P22273 20-364, chain 1 of 2): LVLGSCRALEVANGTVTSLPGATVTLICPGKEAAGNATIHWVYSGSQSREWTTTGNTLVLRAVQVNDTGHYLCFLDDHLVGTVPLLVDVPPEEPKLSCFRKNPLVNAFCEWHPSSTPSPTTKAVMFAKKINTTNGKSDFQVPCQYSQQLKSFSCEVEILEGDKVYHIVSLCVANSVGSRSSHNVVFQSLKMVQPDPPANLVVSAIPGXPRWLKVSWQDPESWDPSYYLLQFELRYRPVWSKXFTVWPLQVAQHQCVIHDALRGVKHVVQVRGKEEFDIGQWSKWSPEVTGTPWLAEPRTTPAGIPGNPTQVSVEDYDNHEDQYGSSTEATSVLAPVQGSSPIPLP
UniProt P22273, sequence (P40190 23-618, chain 2 of 2, further chain): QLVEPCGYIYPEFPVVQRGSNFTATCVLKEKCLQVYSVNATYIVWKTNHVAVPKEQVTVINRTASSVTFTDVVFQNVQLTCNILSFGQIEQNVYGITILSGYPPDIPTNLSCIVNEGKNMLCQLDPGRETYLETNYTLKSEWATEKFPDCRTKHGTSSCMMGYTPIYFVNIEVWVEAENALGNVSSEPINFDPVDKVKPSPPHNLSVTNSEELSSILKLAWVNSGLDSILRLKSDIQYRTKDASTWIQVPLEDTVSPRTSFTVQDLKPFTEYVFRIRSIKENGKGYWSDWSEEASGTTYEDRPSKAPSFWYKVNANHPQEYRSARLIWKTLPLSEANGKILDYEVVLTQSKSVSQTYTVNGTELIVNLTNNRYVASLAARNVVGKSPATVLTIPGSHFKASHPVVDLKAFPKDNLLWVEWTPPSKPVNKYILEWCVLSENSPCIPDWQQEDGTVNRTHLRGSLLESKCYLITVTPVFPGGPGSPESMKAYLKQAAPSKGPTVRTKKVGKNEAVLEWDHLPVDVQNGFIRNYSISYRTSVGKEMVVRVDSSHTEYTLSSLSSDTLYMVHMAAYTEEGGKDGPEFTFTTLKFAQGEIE

IL-6, sequence (P20607 25-211): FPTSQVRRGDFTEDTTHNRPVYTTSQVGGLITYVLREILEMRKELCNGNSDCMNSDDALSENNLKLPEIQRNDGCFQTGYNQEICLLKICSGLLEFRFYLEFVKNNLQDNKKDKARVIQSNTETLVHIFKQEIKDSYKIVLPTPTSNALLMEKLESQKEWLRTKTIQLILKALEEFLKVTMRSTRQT

IL-6 (from UniProt P20607)
Kd: 0.015 nM
